Measurements taken from the DeepSol protein solubility set.

Test: soluble on expression in E. coli; label from the status in PepcDB or PDB records

Sequence | soluble on expression in E. coli
RDFNNLTKGLCTINSWHIYGKDNAVRIGEDSDVLVTREPYVSCDPDECRFYALSQGTTIRGKHSNGTIHDRSQYRALISWPLSSPPTVYNSRVECIGWSSTSCHDGKTRMSICISGPNNNASAVIWYNRRPVTEINTWARNILRTQESECVCHNGVCPVVFTDGSATGPAETRIYYFKEGKILKWEPLAGTAKHIEECSCYGERAEITCTCRDNWQGSNRPVIRIDPVAMTHTSQYICSPVLTDNPRPNDPTVGKCNDPYPGNNNNGVKGFSYLDGVNTWLGRTISIASRSGYEMLKVPNALTDDKSKPTQGQTIVLNTDWSGYSGSFMDYWAEGECYRACFYVELIRGRPKEDKVWWTSNSIVSMCSSTEFLGQWDWPDGAKIEYFL | soluble
MEVRGMDTIGHHYIVEAAGCDPNVIGDANKIREIFLEAAKRGNMEVKASYFFKFSPMGVSGVVIVAESHISVHTWPEKGYAALDVYTCGENADPEKAVDYILEQFKAQYAHVSEIKRGIEEEDRTFTHTILTWEERLDRRNGKP | soluble
MQKLILSALFVALVAADCNMRCPDGYMSFKRTPTPKNSMTGMAILSDTLISPNQAKKVCEKDGSILTSFENFDERTKLSTVLRDFLTAKKLDRGSMIVDGHRLKNCETTDKTVLATVECRNSSSGFTTDEKHTDNTFMWKSWSATEPGQTIFEKSIESCLQLSISQFPARSELINDVFCNYVKHPENEGASDLWNYGAVCGRFPEWI | not soluble
GHEIKDIREDTMHAEFNALRAQVAINDGNPDEAERLAKLALEELPPGWFYSRIVATSVLGEVLHCKGELTRSLALMQQTEQMARQHDVWHYALWSLIQQSEILFAQGFLQTAWETQEKAFQLINEQHLEQLPMHEFLVRIRAQLLWAWARLDEAEASARSGIEVLSSYQPQQQLQCLAMLIQCSLARGDLDNARSQLNRLENLLGNGKYHSDWISNANKVRVIYWQMTGDKAAAANWLRHTAKPEFANNHFLQGQWRNIARAQILLGEFEPAEIVLEELNENARSLRLMSDLNRNLLLLNQLYWQAGRKSDAQRVLLDALKLANRTGFISHFVIEGEAMAQQLRQLIQLNTLPELEQHRAQRILREINQHHGA | soluble
VTVTLCSPTEDDWPGMFLLAAASFTDFIGPESATAWRTLVPTDGAVVVRDGAGPGSEVVGMALYMDLRLTVPGEVVLPTAGLSFVAVAPTHRRRGLLRAMCAELHRRIADSGYPVAALHASEGGIYGRFGYGPATTLHELTVDRRFARFHADAPGGGLGGSSVRLVRPTEHRGEFEAIYERWRQQVPGGLLRPQVLWDELLAECKAAPGGDRESFALLHPDGYALYRVDRTDLKLARVSELRAVTADAHCALWRALIGLDSMERISIITHPQDPLPHLLTDTRLARTTWRQDGLWLRIMNVPAALEARGYAHEVGEFSTVLEVSDGGRFALKIGDGRARCTPTDAAAEIEMDRDVLGSLYLGAHRASTLAAANRLRTKDSQLLRRLDAAFASDVPVQTAFEF | not soluble
MSLAEASTVETEFAARVQEFYHDQSDPIQLVVAFKALCAVKALLAAANLEEHGAKSSYFQEEFENWDLETKLWHLVEVLYLYRLAENEEVIAENQYSSISVLQENVLRQNPKLKELLIILGWLQTNSKGVDVPGSLSNTSKWSNTRQALANKDLNVLTTHGHTGETDTKLQNIDPDAPIRQACPVMAEDDLRDSQVFRTIYQLILSGQLQEAIELASSTGNHTLALILLGGTQDFIDPVLDKDFCETTMTDLIVPNKPSGAKHKLLWKQAVFKLSHQLGINKYERLIYDYLSGGDISGGLEVVGDSWENLLIIYLNKICLHVLLNALNSNESTTSIPAPPAESIDQVLNLISKGSNGAAQQSKHPLRIVMGSVMISEIGALISGVLKSLNNNFTTQKVWEEDYLVRVMAHLGLFAHAVGSQVSANDLTQLLTLYVQRLSARGFTDLVPLYLSFIPDDSDAREYYSKFLSSITDPSERTKQLQLVRKLGIDSNGDEERMANVLRRTVERVMADTEAEGHHHHHH | soluble
MRLLTCDCTFMGQKHSGSVSVEKKNQENDGPPTYEIVFGWSQSFENLMKHRAGQKYFAEFLKGEYSDENILFWQACEELKREKNAEKIEEKARIIYEDFISILSPKEVSLDSRVREIVNTNMGRPSASTFDEAQNQIYTLMQRDSYPRFLASNIYKTVMGTFGIKEEAV | not soluble
MSLKVGVALSGGVDSAVALYLLLKEGHEVKAFHMKTKEDEFFIKKEIKKKVCCSPSDTADAMRIAHFLGVEIEIVDVKEIFREKVIEPFKRDLLKGLTPNPCAHCNRFVKFGYLMDYVLNQGFDAFASGHYARIEFSEKYGRKVIKKGVDLKKDQSYFLARIEPWRIERLIFPNGIYTKEEIRKIAEEAGIHVAKKQESQDVCFIPDGSIENFLKDEGITLKDGDIITPEGEVVGRHFGYPLYTIGQRKGFKIEKFGRRYYVRGKIPEKNVVVVSDLEDVFFSGLIAEDPVWHVEVPEEFRCVCRVRKKSEEAPAVVKVKDNEVEVSFEKKVFAVTPGQIAAFYDGDTLLGGAIIKEGIREGHHHHHH | soluble
MSLSIRSLFGGLREKILGKNMKIVFPEGNDERVVRAAARLKFEGLLEPIILGQSEEVRNLLTKLGFADQDYTIINPNEYADFDKMKEAFVEVRKGKATLEDADKMLRDVNYFGVMLVKMGLADGMVSGAIHSTADTVRPALQIIKTKPGISRTSGVFLMNRENTSERYVFADCAINIDPTAQELAEIAVNTAETAKIFDIDPKIAMLSFSTKGSGKAPQVDKVREATEIATGLNPDLALDGELQFDAAFVPETAAIKAPDSAVAGQANTFVFPDLQSGNIGYKIAQRLGMFDAIGPILQGLNKPVNDLSRGSSAEDIYKLAIITAAQAIESQGEGHHHHHH | soluble
MGSDKIHHHHHHMIKLIATDIDGTLVKDGSLLIDPEYMSVIDRLIDKGIIFVVCSGRQFSSEFKLFAPIKHKLLYITDGGTVVRTPKEILKTYPMDEDIWKGMCRMVRDELPACDYFAATPDFCFAEDGGSPIFHLLRDSYGFEMREVDDITRLDRNDIIKFTVFHPDKCEELCTPVFIPAWNKKAHLAAAGKEWVDCNAKGVSKWTALSYLIDRFDLLPDEVCCFGDNLNDIEMLQNAGISYAVSNARQEVIAAAKHTCAPYWENGVLSVLKSFL | not soluble
MTISRTQQIQQLEQEWTSPRWKNITRPYSAEDVIKLRGSVNPECTFAQNGAKKLWELLHGGSRKGYINCLGALTGGQALQQAKAGVEAIYMSGWQVAADANTASSMYPDQSLYPVDSVPAVVKRINNSFRRADQIQWSNNIEPGSKGYTDYFLPIVADAEAGFGGVLNAFELMKAMIEAGAAGVHFEDQLAAVKKCGHMGGKVLVPTQEAIQKLVAARLAADVLGVPTLLIARTDADAADLLTSDCDPYDREFITGDRTAEGFFRTRAGIEQAISRGLAYAPYADLVWCETSTPDLALAKRFADAVHAQFPGKLLAYNCSPSFNWKKNLTDQQIASFQDELSAMGYKYQFITLAGIHSMWFNMFDLAHAYAQGEGMKHYVEKVQQPEFASVDRGYTFASHQQEVGTGYFDKVTNIIQGGASSVTALTGSTEEQQF | soluble
MILFGTGGIRGVMRKGEFDEETVKRASLSTALWLKEKGQKSVVIAYDTRKNSKEFAELAGRVFAGEGIEAYVFPEPTPTPVLSFAVRYMKTGGGVVITASHNPPEYNGYKVYTWDGVQAIPEYTNEITEIYKKVDLSHVKEGEIKFVPPEVKESYIKAVLEIVSNLPMKTDLDIAYSPLHGTGANYVPEVLKRLGFKVRLVEEQMKPDPNFSTVPTPNPEEDEALVLLNKKGATLGLATDPDCDRVGVVFKGRRLTGNQVGVLLTDFLLDHVKVENPLVIKTIVTTDMVRPICEEKGAFLEETPTGFKFIGHLIEEHTKKGDRNFVFGFEESCGYLAGNHARDKDGVVGSVLSAVAFSNYDPYEKLEELYQKYGYYMEKLINFKFEDVDRAVEIYRSLKNYDGIIDYSKGYGNVIPNETIAFVFEKSRIFVRPSGTEPKLKVYIHVRGDTREEAEELMKESESKIKEILKL | soluble
MKRLSLREAWPYLKDLQQDPLAVLLEWGRAHPRLFLPLPRFPLALIFDPEGVEGALLAEGTTKATFQYRALSRLTGRGLLTDWGKSWKEARKALKDPFLPKSVRGYREAMEEEAWAFFGEWRGEERDLDHEMLALSLRLLGRALFGKPLSPSLAEHALKALDRIMAQTRSPLALLDLAAEARFRKDRGALYREAEALIVHPPLSHLPRERALSEAVTLLVAGHETVASALTWSFLLLSHRPDWQKRVAESEEAALAAFQEALRLYPPAWILTRRLERPLLLGEDRLPQGTTLVLSPYVTQRLYFPEGEAFQPERFLAERGTPSGRYFPFGLGQRLCLGRDFALLEGPIVLRAFFRRFRLDPLPFPRVLAQVTLRPEGGLPARPREGVRA | soluble
MPGKRRFRRSPVKYDFFTRLLQTGFLSTDSLLYPESQFHICTQLSSQDAYADNLEHHHHHH | not soluble
MSLKTLFDKTNLGTINMKNRFLRGALWTALADEKGHMTNELSDVYEELARGGVGTIVTGYAFVTENEQPNPRMMGIYDDSFIPEYKEFTDKIHRLGSNIIMQIVYGGFMTEFNVGERVIWGPSTTKNEVTGTLSREMTKEDIKYLVNAYAEAALRVKKSGFDGVEIHGGHGYLVSQFLSPYYNKRTDEYGGSIENRGRFVFEIFKAIREKVGEKFPILIKLNSSDYVKEGGLTIEDSLYVAERLAELGIDAIEVTGGNESIEEVMKNNLGPSRTKVAISKDRESYFKEYAIKLAERINKPVILSGGNRHFDVMEELLNDTNIEYFSLSRPLTAEPDLINKWYSGDLKKPKCKSCNQCYKTYGKRCIFNIKEGHHHHHH | soluble
SASLDRVKVLVLGDSGVGKSSLVHLLCQNQVLGNPSWTVGCSVDVRVHDYREGTPEEKAFYIELWDVGGSVGSASSVKSTRAVFYNSVNGIILVHDLTNKKSSQNLYRWSLEALSKDSSPTGIIVSNGDYDREQFAENAVPLLLIGTKFDQIPENKRNDVLTRTAFLSEDFNAEEINLDCTNPRYLAAGSSNAVKLSRFFDKVIEKRYFTRDPSQMQSFTDRRRFNFKSLHSD | soluble
MSLNNYKIFISAGESSGDIHGANLMRSLLKKNPNITFYGLGKERMNEAGLHCLCDMKTKSLMWLHALTELSAFLRMKKDCVRFFQHETPCAVILIDYCGFNFQLARAAKKLKIPVIYYITPQLWAHGPWRIKKLRKLVDFLIVIYPFEKSFYETSGLPVTYVGHPLFDELDRERRINNHLSMEEKQVGEYIVSLLPGSRKQEIIRLLPLLLRAAKQIKQTIPSIKILVSCTSEQYFSLIRLIVEASHLPAEIIVGCVRKIIQSSDICLAGSGTVTLQIAYYHTPMLIVYKISPFAYFIARPFLTTPYIGLVNILANKMIVPETLMCSNNYSRLANQAIELLRNNQKRHLCIENLRSLMDDIGKPGASERAAEEIFRFLRQETEGHHHHHH | not soluble
MSEIAMHVTAKPSSFQCNLKCDYCFYLEKESQFTHEKWMDDSTLKEFIKQYIAASGNQVYFTWQGGEPTLAGLDFFRKVIHYQQRYAGQKRIFNALQTNGILLNNEWCAFLKEHEFLVGISIDGPQELHDRYRRSNSGNGTFAKVIAAIERLKSYQVEFNTLTVINNVNVHYPLEVYHFLKSIGSKHMQFIELLETGTPNIDFSGHSENTFRIIDFSVPPTAYGKFMSTIFMQWVKNDVGEIFIRQFESFVSRFLGNGHTSCIFQESCKDNLVVESNGDIYECDHFVYPQYKLGNINKSELKTMNSVQLTAQKKRISAKCQQCAYKPICNGGCPKHRITKVNDETVSYFCEGYKILFSTMVPYMNAMVELAKNRVPLYHIMDVAKQMENN | not soluble
MTTVTKHKVLLIAGPTAVGKTALSLALAKQLNGEIISGDSMQVYRHLDIGTAKIMPEEQAGIPHHLIDIKNIDQRFTVAEFVSRTTALIIDISARGKLPIIVGGTGFYLQSLLAGYQFGPADNEPDMAYRQAWFDRAAVEGSDVAWMALKQRDPQAATAIAPANLVRVVRALEYVHTTGQLFSEQADTHGDTLDAYTLCLTAERALLYTRINQRVDQMVAAGLEQEARWLFDQGGAMLPAGKGIGYHEWFPYFNGEQTRDESIAKIKQDSRRYAKRQLTWFRNKMSVDWINLLEHPELRASIDQRLASWLSLEHHHHHH | soluble
